Results published in doi:10.1101/2020.01.21.913814.

Target: T1, His-tagged Arabidopsis thaliana full-length UVR8 (UV … LOCUS 8) (Arabidopsis thaliana), Q9FN03
T1 chain: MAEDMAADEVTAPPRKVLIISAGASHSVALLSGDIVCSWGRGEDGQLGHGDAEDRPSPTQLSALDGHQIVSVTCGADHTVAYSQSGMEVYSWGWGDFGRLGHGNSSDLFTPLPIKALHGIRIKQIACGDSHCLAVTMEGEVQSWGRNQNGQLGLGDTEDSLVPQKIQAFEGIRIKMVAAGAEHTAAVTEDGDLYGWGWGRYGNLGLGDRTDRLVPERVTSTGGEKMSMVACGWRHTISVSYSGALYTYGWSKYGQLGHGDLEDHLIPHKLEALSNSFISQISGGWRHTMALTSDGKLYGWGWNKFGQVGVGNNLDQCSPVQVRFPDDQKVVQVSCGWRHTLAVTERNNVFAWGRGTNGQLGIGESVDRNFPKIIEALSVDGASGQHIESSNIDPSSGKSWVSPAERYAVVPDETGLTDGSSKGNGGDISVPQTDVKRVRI
Test: SDS-PAGE without boiling
Settings: remark: other sources report otherwise

B1: His-tagged Arabidopsis thaliana full-length UVR8 (UV … LOCUS 8), Q9FN03 1-440 (natural protein)
chain: T1 chain
stoichiometry N: 2
